According to patent US20170015742A1 (published 2017):

T1: recombinant cynomolgus PDGF-BB (cynomolgus monkey, UniProt P01127 82-190 (human entry), limits assumed)
T1 chain: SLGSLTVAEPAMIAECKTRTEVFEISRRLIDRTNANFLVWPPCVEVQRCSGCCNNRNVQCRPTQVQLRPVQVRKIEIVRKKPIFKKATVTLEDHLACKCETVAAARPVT

B1: CODV015 cross-over DVD-Ig (PR-1571827) (bispecific antibody, human IgG1, kappa, L234A L235A)
heavy: EVQLVQSGSELKKPGASVKVSCKASGYTFTNYGMYWVRQAPGQGLEWMGWINTETGKPTYADDFKGRFVFSLDTSVSTAYLQISSLKAEDTAVYYCARTNYYYRSYIFYFDYWGQGTMVTVSSGGGGSGGGEFVLTQSPGTLSLSPGERATLSCERSSGDIGDSYVSWYQQKPGQAPRLVIYADDQRPSGIPDRFSGSGSGTDFTLTISRLEPEDFAVYYCQSYDINIDIVFGGGTKVEIKGGGSGASTKGPSVFPLAPSSKSTSGGTAALGCLVKDYFPEPVTVSWNSGALTSGVHTFPAVLQSSGLYSLSSVVTVPSSSLGTQTYICNVNHKPSNTKVDKKVEPKSCDKTHTCPPCPAPEAAGGPSVFLFPPKPKDTLMISRTPEVTCVVVDVSHEDPEVKFNWYVDGVEVHNAKTKPREEQYNSTYRVVSVLTVLHQDWLNGKEYKCKVSNKALPAPIEKTISKAKGQPREPQVYTLPPSREEMTKNQVSLTCLVKGFYPSDIAVEWESNGQPENNYKTTPPVLDSDGSFFLYSKLTVDKSRWQQGNVFSCSVMHEALHNAYTQKSLSLSPGK
light: EVTLRESGPALVKPTQTLTLTCTFSGFSLSTYGMGVGWIRQPPGKALEWLANIWWDDDKYYNPSLKNRLTISKDTSKNQVVLTMTNMDPVDTATYYCARIESIGTTYSFDYWGQGTMVTVSSGGGGSGGGDTVLTQSPATLSLSPGERATLSCRASESVSTHMHWYQQKPGQAPRLLIYGASNLESGVPARFSGSGSGTDFTLTISSLEPEDFAVYFCQQSWNDPFTFGQGTKLEIKGGSRTVAAPSVFIFPPSDEQLKSGTASVVCLLNNFYPREAKVQWKVDNALQSGNSQESVTEQDSKDSTYSLSSTLTLSKADYEKHKVYACEVTHQGLSSPVTKSFNRGEC
B2: CODV016 cross-over DVD-Ig (PR-1571828) (bispecific antibody, human IgG1, kappa, L234A L235A)
heavy: EVQLVQSGSELKKPGASVKVSCKASGYTFTNYGMYWVRQAPGQGLEWMGWINTETGKPTYADDFKGRFVFSLDTSVSTAYLQISSLKAEDTAVYYCARTNYYYRSYIFYFDYWGQGTMVTVSSGGGGSGGGEFVLTQSPGTLSLSPGERATLSCERSSGDIGDSYVSWYQQKPGQAPRLVIYADDQRPSGIPDRFSGSGSGTDFTLTISRLEPEDFAVYYCQSYDINIDIVFGGGTKVEIKGGGSGASTKGPSVFPLAPSSKSTSGGTAALGCLVKDYFPEPVTVSWNSGALTSGVHTFPAVLQSSGLYSLSSVVTVPSSSLGTQTYICNVNHKPSNTKVDKKVEPKSCDKTHTCPPCPAPEAAGGPSVFLFPPKPKDTLMISRTPEVTCVVVDVSHEDPEVKFNWYVDGVEVHNAKTKPREEQYNSTYRVVSVLTVLHQDWLNGKEYKCKVSNKALPAPIEKTISKAKGQPREPQVYTLPPSREEMTKNQVSLTCLVKGFYPSDIAVEWESNGQPENNYKTTPPVLDSDGSFFLYSKLTVDKSRWQQGNVFSCSVMHEALHNAYTQKSLSLSPGK
light: EVTLRESGPALVKPTQTLTLTCTFSGFSLSTYGMGVGWIRQPPGKALEWLANIWWDDDKYYNPSLKNRLTISKDTSKNQVVLTMTNMDPVDTATYYCARIESIGTTYSFDYWGQGTMVTVSSGGGGSDTVLTQSPATLSLSPGERATLSCRASESVSTHMHWYQQKPGQAPRLLIYGASNLESGVPARFSGSGSGTDFTLTISSLEPEDFAVYFCQQSWNDPFTFGQGTKLEIKGGSRTVAAPSVFIFPPSDEQLKSGTASVVCLLNNFYPREAKVQWKVDNALQSGNSQESVTEQDSKDSTYSLSSTLTLSKADYEKHKVYACEVTHQGLSSPVTKSFNRGEC
B3: 4G8.3-LS-9E8.4 (g) anti-VEGF-A/anti-PDGF-BB DVD-Ig (PR-1572106) (bispecific antibody, human IgG1, kappa, L234A L235A)
heavy: EVQLVQSGSELKKPGASVKVSCKASGYTFTNYGMYWVRQAPGQGLEWMGWINTETGKPTYADDFKGRFVFSLDTSVSTAYLQISSLKAEDTAVYYCARTNYYYRSYIFYFDYWGQGTMVTVSSASTKGPSVFPLAPEVTLRESGPALVKPTQTLTLTCTFSGFSLSTYGMGVGWIRQPPGKALEWLANIWWDDDKYYNPSLKNRLTISKDTSKNQVVLTMTNMDPVDTATYYCARIESIGTTYSFDYWGQGTMVTVSSASTKGPSVFPLAPSSKSTSGGTAALGCLVKDYFPEPVTVSWNSGALTSGVHTFPAVLQSSGLYSLSSVVTVPSSSLGTQTYICNVNHKPSNTKVDKKVEPKSCDKTHTCPPCPAPEAAGGPSVFLFPPKPKDTLMISRTPEVTCVVVDVSHEDPEVKFNWYVDGVEVHNAKTKPREEQYNSTYRVVSVLTVLHQDWLNGKEYKCKVSNKALPAPIEKTISKAKGQPREPQVYTLPPSREEMTKNQVSLTCLVKGFYPSDIAVEWESNGQPENNYKTTPPVLDSDGSFFLYSKLTVDKSRWQQGNVFSCSVMHEALHNAYTQKSLSLSPGK
light: DTVLTQSPATLSLSPGERATLSCRASESVSTHMHWYQQKPGQAPRLLIYGASNLESGVPARFSGSGSGTDFTLTISSLEPEDFAVYFCQQSWNDPFTFGQGTKLEIKRTVAAPEFVLTQSPGTLSLSPGERATLSCERSSGDIGDSYVSWYQQKPGQAPRLVIYADDQRPSGIPDRFSGSGSGTDFTLTISRLEPEDFAVYYCQSYDINIDIVFGGGTKVEIKRTVAAPSVFIFPPSDEQLKSGTASVVCLLNNFYPREAKVQWKVDNALQSGNSQESVTEQDSKDSTYSLSSTLTLSKADYEKHKVYACEVTHQGLSSPVTKSFNRGEC
B4: BEW-9E7-B4 (antibody, V domains shown)
VH: QIQLVQSGPELKKPGESVKISCKASGYTFTNYGMYWVKQAPGQGLQYMGWIDTETGKPTYADDFKGRFVFFLETSASTAYLQINNLRNEDMATYFCARWGYTSDYYYGWFPDWGQGTLVTVST
VL: DTVLTQSPALAVSPGERVSISCRASEGVNSYMHWYQQNPGQQPKLLIYKASNLASGVPARFSGSGSGTDFTLNIHPVEADDTATYFCQQNWNVPLTFGSGTKLEIK
notes: Rat hybridoma anti-human VEGF-A monoclonal antibody, isotype IgG2b/kappa
B5: BEW-9C2-D6 (antibody, V domains shown)
VH: QIQLVQSGPELKKPGESVKVSCKASGYTFTNYGIHWVKQAPGQGLQYVGWINTETGRPTYADDFKGRFVFFLETSASTAYLQINNLKNEDMATYFCARPLYYGYAHYFDYWGQGVMVTVSS
VL: DIQMTQSPASLSASLEEIVTITCQASQDIGNWLAWYQQKPGKSPQLLIYGATSLADGVPSRFSGSRSGTQYSLKISRLQVEDIGIYYCQQASSVTYTFGAGTKLELK
notes: as for B4
B6: BEW-9D2-E8 (antibody, V domains shown)
VH: QIQLVQSGPELKKPGESVKISCKASGYTFTNYGMYWVKLAPGQGLQYLGWINTETGKPTYADDFKGRFVFFLETSASTAYLQINNLRNEDMATYFCARPSDYYDGFWFAYWGQGTLVTVSS
VL: DTVLTQSPALTVSPGERVSISCRASEWVNSYMHWYQQNPGQQPKLLIYKASNLASGVPARFSGSGSGTDFTLTLDPVEADDTATYFCQQSWNDPLTFGSGTKLEIK
notes: Rat hybridoma anti-human VEGF-A monoclonal antibody, isotype IgG2a/kappa
B7: BEW-1B10-B9-C3 (antibody, V domains shown)
VH: EVQLVESGGGLVQPGRSLKLSCAASGFSFSKYDMAWFRQTPTKGLEWVASITTSGVGTYYRDSVKGRFTVSRDNAKSTLYLQMDSLRSEDTATYYCARGYGAMDAWGQGTSVTVSS
VL: DIQMTQSPASLSASLEEIVTITCKASQDIDDYLSWYQQKPGKSPQLVIYAATRLADGVPSRFSGSGSGTQYSLKISRLQVDDSGIYYCLQSSSTPWTFGGGTNLELK
notes: as for B6
B8: BEW-3A1-D10-G9 (antibody, V domains shown)
VH: QVQLEQSGAELVKPGTSVKLSCMASGYTSSSNHMNWMKQTTGQGLEWIGIINPGSGGTRYNVKFEGKATLTVDKSSSTAFMQLNSLTPEDSAVYYCARAGFPGPFSYYAMGAWGQGTSVTVSS
VL: DIQMTQSPPVLSASVGDRVTLSCKASQNIHNNLDWYQQKHGEAPKLLIFYTNNLQTGIPSRFSGSGSGTDYTLTISSLQPEDVATYYCYQYNSGYTFGAGTKLELK
notes: as for B4
B9: BED-4G10-C8 (antibody, V domains shown)
VH: QVQLQQSGTELVKPGSSVKISCKASGYTFTSNYMHWIRQQPGNGLEWIGWIYPGDGDTNYNHNFNGKATLTADKSSSTAYMQLSSLTSEDFAVYFCASSTRAIPGWFTYWGQGTLVTVSS
VL: DTVLTQSPALAVSPGERVSISCWASESVSTLMHWYQQKLGQQPKLLIYGASNLESGVPARFRGSGSGTDFTLTIDPVEADDTATYFCQQSWSDPYTFGAGTKLELK
notes: as for B4
B10: BDB-4G8-D4 (antibody, V domains shown)
VH: QIQLVQSGPELKKPGESVKISCKASGYTFTNYGMYWVKQAPGQGLQYMGWINTETGKPTYADDFKGRFVFFLETSASTAYLQINNLKNEDMATYFCARTNYYYRSYIFYFDYWGQGTMVTVSS
VL: DTVLTQSPALAVSPGERVSISCRASESVSTHMHWYQQKPGQQPKLLIYGASNLESGVPARFSGSGSGTDFTLTIDPVEADDTATYFCQQSWNDPFTFGAVTKLELK
notes: as for B4

Key:
[1] = target: recombinant human VEGF165 (human, UniProt P15692 207-395); assay: cell-based or functional assay
[2] = target: recombinant human PDGF-BB (human, UniProt P01127 82-190); assay: cell-based or functional assay
[3] = target: T1, recombinant cynomolgus PDGF-BB; assay: cell-based or functional assay
[4] = target: recombinant murine PDGF-BB (mouse, UniProt P31240 82-190); assay: cell-based or functional assay
[5] = target: T2, recombinant human VEGF-A 165 (human, UniProt P15692 207-395); assay: receptor competition ELISA, biotinylated hVEGF165 binding to coated hVEGF-R2-Fc
T2 construct: also called huVEGF-A165; hVEGF165
Protocol: To identify molecules that could block the binding of hVEGF₁₆₅ to the hVEGF-R2 (KDR/Flk-1) receptor, a competition ELISA was performed. […] Plates were then washed four times with wash buffer (TBS, 0.05% Tween-20) and blocked with Superblock blocking buffer (Thermo Scientific, cat#37535). […] The pre-incubated sample/hVEGF₁₆₅ complex was added to the coated plate at 50 μL in duplicate and incubated for 30 minutes at 25° C. with shaking. Following incubation, plates were washed four times with wash buffer. Streptavidin-polyHRP-40 (Fitzgerald cal#65r-s104phrp) was diluted in assay diluent (10% Superblock containing 0.05% surfactamps) and added to plates (50 μL) for 45 minutes at 25° C. with shaking. Plates were washed four times with wash buffer and developed with the addition of Enhanced K-blue TMB substrate (Neogen cat#308177). The reaction was stopped with 2N sulfuric acid (VWR, cat# BDH3500-1) and the absorbance was read at 450 nm-570 nm. A decrease in observed optical density indicates the test molecule is blocking the hVEGF₁₆₅ binding to the hVEGF-R2-Fc. Data was analyzed using Softmax Pro 4.8 software and IC₅₀ values calculated using a sigmoidal dose response (variable slope) fit in GraphPad Prism 5.
Anti-VEGF-A antibodies derived from rat hybridomas were characterized for binding, function and cross-reactivity in a panel of assays. Supernatants were tested for the ability to bind hVEGF₁₆₅ (Example 1.3) and block binding of hVEGF₁₆₅ to hVEGFR2 in a competition ELISA format (Example 1.4).

T2 sequence (P15692 other isoform, or with tags, fused parts or gaps limits assumed): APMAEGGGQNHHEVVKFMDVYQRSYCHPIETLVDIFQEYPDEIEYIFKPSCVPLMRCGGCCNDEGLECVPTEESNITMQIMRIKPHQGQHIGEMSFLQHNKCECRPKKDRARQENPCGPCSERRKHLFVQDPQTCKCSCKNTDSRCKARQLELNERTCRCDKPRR
Chain of recombinant human VEGF165 (P15692 other isoform, or with tags, fused parts or gaps limits assumed): as above
Chain of recombinant murine PDGF-BB (P31240 82-190 limits assumed): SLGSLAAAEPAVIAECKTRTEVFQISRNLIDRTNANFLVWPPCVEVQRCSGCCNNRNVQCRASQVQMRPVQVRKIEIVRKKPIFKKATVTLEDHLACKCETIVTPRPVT

| Binder | IC50 [5] [nM] | further results |
| --- | --- | --- |
| B1 | – | HMVEC-d hVEGF165 Potency IC50 [1]: 0.104 nM; NIH-3T3 hPDGF-BB Potency IC50 [2]: 0.075 nM |
| B2 | – | HMVEC-d hVEGF165 Potency IC50 [1]: 0.115 nM; NIH-3T3 hPDGF-BB Potency IC50 [2]: 0.096 nM |
| B3 | – | Potency IC50 (nM) cynoPDGF-BB (NIH-3T3 proliferation) [3]: 0.094 nM; Potency IC50 (nM) mPDGF-BB (NIH-3T3 proliferation) [4]: 0.14 nM |
| B4 | 0.207 | – |
| B5 | 0.155 | – |
| B6 | 0.127 | – |
| B7 | 0.326 | – |
| B8 | 0.124 | – |
| B9 | 0.13 | – |
| B10 | 0.13 | – |
